Tests used:
[1] = target: T1, BVDV NS4B-His recombinant protein (Bovine viral diarrhea virus 1, GenBank …); assay: ELISA; iELISA; NS4B-His or the control BVDV-NS5A-His as coating antigen; the nine nanobodies added; anti-E-tag detection; conditions: one partner purified
T1 construct: also called recombinant NS4B protein

[2] = target: T2, BVDV NS4B-His recombinant protein (Bovine viral diarrhea virus 1, GenBank …, UniProt A0A068L3P0); assay: ELISA; iELISA; 96-well plates coated with NS4B protein (400 ng/well); incubated with TAT-Nb91 or Nb91; anti-camel serum (1:2,000) and HRP-conjugated secondary antibody; OD 450 nm; conditions: both partners purified
T2 construct: also called recombinant NS4B protein

Row | Binder | binding result [1] | binding result [2]
1 | Nb70 (VHH) VHH: LQESGGGSVQAGGSLRLSCTASTFTYISLYMGWFRQAPGKEREGVAGIYAGGGDTYYADSVKGRFTISQDDAKRTVYLQMNSLKPEDTAMYYCAADRGPSRWDFRSWGQGTQVTVSS | binds | 
2 | Nb85 (VHH) VHH: LQESGGGSVQAGGSLRLSCVSSEYSGTIFAMGWFRQAPGKEREGVAVVDSAITKHYADSVKGRFTISRDNAKNRLDLQMDSLKPEDTGMYYCARSRGYLAGASATLRPTNYDDWGQGTQVTVSS | binds | 
3 | Nb72 (VHH) VHH: LQKAGGVSEQAGASLRLSCVLSARIYGRCCLLWFRQDPGNREGISSINTDGKTSYTDSGKDRFTVSQYTDYNILQLQMNSLKPDDTAVYYCGATERVGDICTEYKYRGQGTQVTVSS | binds | 
4 | Nb27 (VHH) VHH: LQESGGGSVQAGGSLKLSCAASGPIFRRCGMGWYRQAPGKEREVVSGINDAGTASYADSVKGRFTISQDNAKNMLYLQMNSLKTEDTAVYYCAGRKYYDVGNYCSVDLYWGQGTQVTVSS | binds | 
5 | TAT-Nb91 recombinant protein (VHH, TAT cell-penetrating peptide from HIV; Linker; VHH of Nb91, as the VHH of m11; About 19 kDa; The primers carry HindIII and XhoI sites; also called TAT-Nb91-His; not shown: His6, C-terminal, kept) VHH: LQESGGGSVQAGGSLKLSCAASGSTFNSCGMGWYRQVPGKERELVSTISDSDTTTYADAVKGRFSISQDKTKNTLYLQMNSLKTEDTARYYCAARSIFAERVCSIHFDSWGQGTQVTVSS |  | binds
6 | Nb67 (VHH) VHH: LQESGGGLVQAGGSLRLSCTASGLNVDNYEMGWFRQAPGKEREGIAQISCSGAMTYYADSVKGRFTISRDNAKKTLYLQMNSLTPEDTAMYYCAAQTRVCGLWTSRGPEMESDFDAWGQGTQVTVSS | binds | 

Reference: paper PMC12741062 (Frontiers in Immunology, 2025)
